The results in this text go back to paper PMC6226330.

For orientation: Km means the substrate concentration at which the rate is half of its maximum.

Common to all, as to assay: purified protein, by the assay type
Details in all cases: pH 8.0; 25.0 °C

Substrate in data set [1]: Nc1ccc(C(=O)O)cc1
Substrate in data set [2]: Nc1ccc(C(=O)O)c(F)c1
Substrate in data set [3]: Nc1ccc(C(=O)O)c(O)c1

B1: S. aureus DHPS (Staphylococcus aureus) (protein)
chain: MTKTKIMGILNVTPDSFSDGGKFNNVESAVTRVKAMMDEGADIIDVGGVSTRPGHEMITVEEELNRVLPVVEAIVGFDVKISVDTFRSEVAEACLKLGVDIINDQWAGLYDHRMFQVVAKYDAEIVLMHNGNGNRDEPVVEEMLTSLLAQAHQAKIAGIPSNKIWLDPGIGFAKTRNEEAEVMARLDELVATEYPVLLATSRKRFTKEMMGYDTTPVERDEVTAATTAYGIMKGVRAVRVHNVELNAKLAKGIDFLKENENARHNFS
For B1, the Km was 2 ± 1 µM in data set [1], 5 ± 2 µM in data set [2] and 8 ± 1 µM in data set [3]. Moreover, the kcat in data set [1] is reported as 170 ± 15 min^–1; in data set [2] it was 200 ± 20 min^–1; in data set [3] it was 220 ± 10 min^–1.
